Results reported in patent US20220267444A1 (CTTQ AKESO SHANGHAI BIOMED TECH, published 2022).

T1: Fc receptor FcγRIIa_R131 (UniProt P12318 34-218, limits assumed)
T1 sequence (looked up): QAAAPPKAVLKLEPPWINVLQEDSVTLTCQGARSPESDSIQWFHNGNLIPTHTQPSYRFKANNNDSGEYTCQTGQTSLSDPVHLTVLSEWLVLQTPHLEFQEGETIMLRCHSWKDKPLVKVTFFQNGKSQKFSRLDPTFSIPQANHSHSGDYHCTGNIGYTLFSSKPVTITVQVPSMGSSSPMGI

T2: Fc receptor FcγRIIa_H131 (UniProt P12318 34-218, limits assumed)
T2 sequence (looked up): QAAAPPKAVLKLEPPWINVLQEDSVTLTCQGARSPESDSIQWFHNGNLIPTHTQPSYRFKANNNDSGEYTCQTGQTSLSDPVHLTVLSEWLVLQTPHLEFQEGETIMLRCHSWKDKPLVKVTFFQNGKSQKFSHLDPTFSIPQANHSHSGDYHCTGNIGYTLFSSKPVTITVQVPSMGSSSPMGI

T3: Fc receptor FcγRIIb (human, UniProt P31994 43-217)
T3 construct: also called CD32b; hFcγRIIb-his; not shown: his tag named in 'hFcγRIIb-his'
T3 sequence (looked up): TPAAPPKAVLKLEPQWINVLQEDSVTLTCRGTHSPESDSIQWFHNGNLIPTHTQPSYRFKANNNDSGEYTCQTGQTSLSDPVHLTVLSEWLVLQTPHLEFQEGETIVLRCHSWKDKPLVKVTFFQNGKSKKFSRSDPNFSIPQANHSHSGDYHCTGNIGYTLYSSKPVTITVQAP

B1: 14C12H1L1(hG1TM) (antibody, human IgG1, kappa)
heavy: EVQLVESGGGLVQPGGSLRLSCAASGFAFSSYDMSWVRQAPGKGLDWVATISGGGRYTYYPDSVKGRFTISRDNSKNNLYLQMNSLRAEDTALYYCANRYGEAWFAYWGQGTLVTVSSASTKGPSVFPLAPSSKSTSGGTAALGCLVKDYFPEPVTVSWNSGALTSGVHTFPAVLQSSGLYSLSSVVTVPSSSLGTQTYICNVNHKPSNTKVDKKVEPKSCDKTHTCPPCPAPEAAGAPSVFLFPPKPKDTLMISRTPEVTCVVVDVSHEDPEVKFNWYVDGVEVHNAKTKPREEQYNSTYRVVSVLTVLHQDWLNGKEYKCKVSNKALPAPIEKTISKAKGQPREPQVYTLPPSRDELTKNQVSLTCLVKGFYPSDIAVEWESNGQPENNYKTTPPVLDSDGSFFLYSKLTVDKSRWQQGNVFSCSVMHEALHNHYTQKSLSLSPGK
light: DIQMTQSPSSMSASVGDRVTFTCRASQDINTYLSWFQQKPGKSPKTLIYRANRLVSGVPSRFSGSGSGQDYTLTISSLQPEDMATYYCLQYDEFPLTFGAGTKLELKRTVAAPSVFIFPPSDEQLKSGTASVVCLLNNFYPREAKVQWKVDNALQSGNSQESVTEQDSKDSTYSLSSTLTLSKADYEKHKVYACEVTHQGLSSPVTKSFNRGEC
notes: Humanized anti-PD-1 IgG1 mutant of 14C12H1L1(hG1WT) with L234A, L235A and G237A (EU numbering) in the heavy chain
B2: 14C12H1L1(hG1WT) (antibody, human IgG1, kappa)
heavy: not shown
light: DIQMTQSPSSMSASVGDRVTFTCRASQDINTYLSWFQQKPGKSPKTLIYRANRLVSGVPSRFSGSGSGQDYTLTISSLQPEDMATYYCLQYDEFPLTFGAGTKLELKRTVAAPSVFIFPPSDEQLKSGTASVVCLLNNFYPREAKVQWKVDNALQSGNSQESVTEQDSKDSTYSLSSTLTLSKADYEKHKVYACEVTHQGLSSPVTKSFNRGEC
notes: Humanized anti-PD-1 antibody, wild-type human IgG1 constant region
B3: 14C12H1L1(hG4) (antibody, human IgG4 S228P, kappa)
heavy: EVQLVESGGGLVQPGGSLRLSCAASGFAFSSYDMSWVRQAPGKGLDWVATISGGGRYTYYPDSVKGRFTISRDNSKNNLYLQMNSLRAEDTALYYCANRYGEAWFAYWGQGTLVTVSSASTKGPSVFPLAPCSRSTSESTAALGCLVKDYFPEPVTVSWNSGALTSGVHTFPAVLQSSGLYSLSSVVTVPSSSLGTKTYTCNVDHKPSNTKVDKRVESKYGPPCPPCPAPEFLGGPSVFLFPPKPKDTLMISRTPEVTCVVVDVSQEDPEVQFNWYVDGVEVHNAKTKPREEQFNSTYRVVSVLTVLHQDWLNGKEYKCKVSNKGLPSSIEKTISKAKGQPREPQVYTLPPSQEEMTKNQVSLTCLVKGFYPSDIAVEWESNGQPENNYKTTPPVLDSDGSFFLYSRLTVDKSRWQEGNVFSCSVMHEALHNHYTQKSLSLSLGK
light: DIQMTQSPSSMSASVGDRVTFTCRASQDINTYLSWFQQKPGKSPKTLIYRANRLVSGVPSRFSGSGSGQDYTLTISSLQPEDMATYYCLQYDEFPLTFGAGTKLELKRTVAAPSVFIFPPSDEQLKSGTASVVCLLNNFYPREAKVQWKVDNALQSGNSQESVTEQDSKDSTYSLSSTLTLSKADYEKHKVYACEVTHQGLSSPVTKSFNRGEC
notes: Humanized anti-PD-1 antibody with the variable regions of 14C12H1L1(hG1WT), Ig gamma-4 chain C region (P01861.1) and Ig kappa chain C region (P01834)
B4: 5C10H2L2-IgG1mt (antibody)
chain 1: not shown
chain 2: EIVLTQSPDTLSVTPKEKVTLTCRASQSIGTNIHWFQQKPGQSPKLLIKYASESISGVPSRFSGSGSGTDFTLTINSVEAEDAATYYCQQSNSWPYTFGQGTKLEIKRTVAAPSVFIFPPSDEQLKSGTASVVCLLNNFYPREAKVQWKVDNALQSGNSQESVTEQDSKDSTYSLSSTLTLSKADYEKHKVYACEVTHQGLSSPVTKSFNRGEC

Experiments:
Fc receptor FcγRIIa_R131 = biological target: T1, Fc receptor FcγRIIa_R131; experiment: BLI (Fortebio Octet); FcγRIIa_R131 on NTA sensor, antibody 12.5-200 nM; 1:1 fit
Procedure: (§1) 5 μg/mL FcγRIIa_R131 was immobilized on the NTA sensor at an immobilization height of about 1.0 nm. The sensor was equilibrated in a buffer of 0.02% Tween-20, 0.02% casein and 0.1% BSA in PBS, pH 7.4 for 300 s of blocking, and the binding of the immobilized FcγRIIa_R131 on the sensor to the antibodies at concentrations of 12.5-200 nM (serial two-fold dilution) was determined for 60 s. The antibody was dissociated in the buffer for 60 s. The sensor was refreshed in 10 mM glycine pH 1.7 and […] nickel sulfate. The temperature was 30° C. and the frequency was 0.6 Hz. The data were analyzed by 1:1 model fitting to obtain affinity constants.

Serum complement C1q [1] = biological target: T4, Serum complement C1q (UniProt P02745 23-245; P02746 28-253; P02747 29-245); experiment: BLI (Fortebio Octet), antibody immobilised on FAB2G sensor, C1q in solution at 1.25-20 nM
Procedure: (§2) 50 μg/mL antibody was immobilized on the FAB2G sensor at an immobilization height of about 2.0 nm. The sensor was equilibrated in a buffer for 60 s for blocking, and the binding of the immobilized antibody on the sensor to the antigen C1q at concentrations of 1.25-20 nM (serial two-fold dilution) was determined for 60 s. The antigen and antibody were dissociated in the buffer for 60 s. The sensor was refreshed 4 times in 10 mM glycine pH 1.7, each for 5 s. The shaking speed of the sample plate was 1000 rpm, the temperature was 30° C. and the frequency was 0.6 Hz. The data were analyzed by 1:1 model fitting to obtain affinity constants. The data acquisition software was Fortebio Data Acquisition 7.0, and the data analysis software was Fortebio Data Analysis 7.0.

Fc receptor FcγRI [2] = biological target: T5, Fc receptor FcγRI (UniProt P12314 16-288); experiment: BLI (Fortebio Octet), FcγRI immobilised on HIS1K sensor, antibody in solution at 3.12-50 nM
T5 construct: also called CD64
Procedure: (§3) The Fc receptor FcγRI, also known as CD64, can bind to the Fc fragment of IgG antibodies and is involved in antibody-dependent cell-mediated cytotoxicity (ADCC). The binding capacity of a therapeutic monoclonal antibody to Fc receptors will influence the safety and efficacy of the antibody. […] A 1 μg/mL FcγRI solution (from Sinobio) was added to the HIS1K sensor to immobilize the FcγRI on the sensor surface for 50 s. The association and dissociation constants of the antibodies to FcγRI were both determined in the buffer with the antibody concentrations being 3.12-50 nM (serial two-fold dilution). The sensor with immobilized antigen was equilibrated in the buffer for 60 s, and then the binding of the immobilized FcγRI on the sensor to the antibodies was determined for 120 s; the dissociation of FcγRI from the antibodies was determined in 120 s. The temperature was 30° C. and the frequency was 0.3 Hz. The data were fitted and analyzed with a 1:1 model to obtain the affinity constants to FcγRI for the antibodies.

Fc receptor FcγRIIa_H131 [3] = biological target: T2, Fc receptor FcγRIIa_H131; experiment: BLI (Fortebio Octet), FcγRIIa_H131 immobilised on NTA sensor, antibody in solution at 12.5-200 nM
Procedure: as §1, with “FcγRIIa_H131” for “FcγRIIa_R131”

Fc receptor FcγRIIb [4] = biological target: T3, Fc receptor FcγRIIb; experiment: BLI (Fortebio Octet), hFcγRIIb-his immobilised on NTA sensor, antibody in solution at 12.5-200 nM
Procedure: as §1, with “hFcγRIIb-his” for “FcγRIIa_R131”

[5] = biological target: T6, Fc receptor FcγRIIIa_V158 (UniProt P08637 17-208); experiment: BLI (Fortebio Octet), FcγRIIIa_V158 immobilised on HIS1K sensor, antibody in solution at 31.25-500 nM
Procedure: (§4) 5 μg/mL FcγRIIIa_V158 was immobilized on the HIS1K sensor for 120 s. The sensor was equilibrated in a buffer for 60 s, and the binding of the immobilized FcγRIIIa_V158 on the sensor to the antibodies at concentrations of 31.25-500 nM (serial two-fold dilution) was determined for 60 s. The antibody was dissociated in the buffer for 60 s. The sensor was refreshed 4 times in 10 mM glycine pH 1.5, each for 5 s. The temperature was 30° C. and the frequency was 0.3 Hz. The data were analyzed by 1:1 model fitting to obtain affinity constants.

[6] = biological target: T7, Fc receptor FcγRIIIa_F158 (UniProt P08637 17-208); experiment: BLI (Fortebio Octet), FcγRIIIa_F158 immobilised on HIS1K sensor, antibody in solution at 31.25-500 nM
Procedure: as §4, with “FcγRIIIa_F158” for “FcγRIIIa_V158”

Serum complement C1q [7] = biological target: T4, Serum complement C1q; experiment: BLI (Fortebio Octet); antibody on FAB2G sensor, C1q 1.25-20 nM; 1:1 fit
Procedure: as §2

Fc receptor FcγRI [8] = biological target: T5, Fc receptor FcγRI; experiment: BLI (Fortebio Octet); FcγRI on HIS1K sensor, antibody 3.12-50 nM; 1:1 fit
Procedure: as §3

Fc receptor FcγRIIa_H131 [9] = biological target: T2, Fc receptor FcγRIIa_H131; experiment: BLI (Fortebio Octet); FcγRIIa_H131 on NTA sensor, antibody 12.5-200 nM; 1:1 fit
Procedure: as §1, with “FcγRIIa_H131” for “FcγRIIa_R131”

Fc receptor FcγRIIb [10] = biological target: T3, Fc receptor FcγRIIb; experiment: BLI (Fortebio Octet); hFcγRIIb-his on NTA sensor, antibody 12.5-200 nM; 1:1 fit
Procedure: as §1, with “hFcγRIIb-his” for “FcγRIIa_R131”

[11] = biological target: T6, Fc receptor FcγRIIIa_V158; experiment: BLI (Fortebio Octet); FcγRIIIa_V158 on HIS1K sensor, antibody 31.25-500 nM; 1:1 fit
Procedure: as §4

[12] = biological target: T7, Fc receptor FcγRIIIa_F158; experiment: BLI (Fortebio Octet); FcγRIIIa_F158 on HIS1K sensor, antibody 31.25-500 nM; 1:1 fit
Procedure: as §4, with “FcγRIIIa_F158” for “FcγRIIIa_V158”

T5 sequence (P12314 16-288 limits assumed): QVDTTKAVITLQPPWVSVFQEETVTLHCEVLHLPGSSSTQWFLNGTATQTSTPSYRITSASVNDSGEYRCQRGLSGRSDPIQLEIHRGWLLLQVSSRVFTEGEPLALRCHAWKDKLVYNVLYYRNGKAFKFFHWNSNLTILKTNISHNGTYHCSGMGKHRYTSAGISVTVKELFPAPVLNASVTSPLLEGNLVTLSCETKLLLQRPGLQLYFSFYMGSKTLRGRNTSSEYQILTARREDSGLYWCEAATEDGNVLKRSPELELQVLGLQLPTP
T4 sequence (P02745 23-245 limits assumed, chain 1 of 3): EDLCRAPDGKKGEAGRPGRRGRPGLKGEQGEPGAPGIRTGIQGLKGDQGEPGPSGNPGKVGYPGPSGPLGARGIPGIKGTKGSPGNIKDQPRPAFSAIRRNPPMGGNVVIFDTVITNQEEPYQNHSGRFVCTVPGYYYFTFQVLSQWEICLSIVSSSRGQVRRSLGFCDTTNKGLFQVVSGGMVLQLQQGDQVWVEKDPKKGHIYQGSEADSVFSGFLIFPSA
T4 sequence (P02746 28-253 limits assumed, chain 2 of 3): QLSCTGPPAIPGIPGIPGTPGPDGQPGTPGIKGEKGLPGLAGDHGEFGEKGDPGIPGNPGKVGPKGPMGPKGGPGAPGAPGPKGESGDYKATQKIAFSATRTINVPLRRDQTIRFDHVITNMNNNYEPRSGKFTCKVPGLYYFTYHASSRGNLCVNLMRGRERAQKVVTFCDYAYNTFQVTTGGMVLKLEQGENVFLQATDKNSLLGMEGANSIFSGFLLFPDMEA
T4 sequence (P02747 29-245 limits assumed, chain 3 of 3): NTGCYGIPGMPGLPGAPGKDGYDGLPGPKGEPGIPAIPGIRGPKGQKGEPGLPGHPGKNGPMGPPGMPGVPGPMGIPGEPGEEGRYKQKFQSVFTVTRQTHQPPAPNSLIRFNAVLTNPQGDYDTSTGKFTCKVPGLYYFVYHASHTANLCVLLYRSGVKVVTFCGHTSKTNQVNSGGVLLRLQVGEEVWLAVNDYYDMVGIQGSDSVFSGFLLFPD
T6 sequence (P08637 17-208 F176V limits assumed): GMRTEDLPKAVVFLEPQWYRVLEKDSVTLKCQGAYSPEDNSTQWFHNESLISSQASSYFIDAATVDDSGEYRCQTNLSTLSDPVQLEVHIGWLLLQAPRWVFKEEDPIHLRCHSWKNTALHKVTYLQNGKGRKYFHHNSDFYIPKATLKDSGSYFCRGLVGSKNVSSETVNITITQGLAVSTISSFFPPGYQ
T7 sequence (P08637 17-208 limits assumed): as the sequence (P08637 17-208 F176V limits assumed) above, with V160F counted along it

Binder	Kd (Fc receptor FcγRIIa_R131) [nM]	koff (Fc receptor FcγRIIa_R131) [s⁻¹]	kon (Fc receptor FcγRIIa_R131) [M⁻¹ s⁻¹]	binding result (Serum complement C1q [1])	binding result [6]	Kd (Serum complement C1q [7]) [nM]	koff (Serum complement C1q [7]) [s⁻¹]	kon (Serum complement C1q [7]) [M⁻¹ s⁻¹]	Kd (Fc receptor FcγRI [8]) [nM]	koff (Fc receptor FcγRI [8]) [s⁻¹]	kon (Fc receptor FcγRI [8]) [M⁻¹ s⁻¹]	Kd (Fc receptor FcγRIIa_H131 [9]) [nM]	koff (Fc receptor FcγRIIa_H131 [9]) [s⁻¹]	kon (Fc receptor FcγRIIa_H131 [9]) [M⁻¹ s⁻¹]	Kd (Fc receptor FcγRIIb [10]) [nM]	koff (Fc receptor FcγRIIb [10]) [s⁻¹]	kon (Fc receptor FcγRIIb [10]) [M⁻¹ s⁻¹]	further results
B1	232	0.0938	404000	no binding (tested: 20 nM)	no binding (tested: 500 nM)	–	–	–	–	–	–	–	–	–	–	–	–	binding result (Fc receptor FcγRI [2]): no binding (tested: 50 nM); binding result (Fc receptor FcγRIIa_H131 [3]): no binding (tested: 200 nM); binding result (Fc receptor FcγRIIb [4]): no binding (tested: 200 nM); binding result [5]: no binding (tested: 500 nM)
B2	34.6	0.0228	660000	–	–	1.35	0.00654	4.83e+06	2.52	0.00175	694000	57.4	0.0267	465000	61.3	0.0195	318000	Kd [11]: 65.4 nM; koff [11]: 0.0171 s⁻¹; kon [11]: 261000 M⁻¹ s⁻¹; Kd [12]: 102 nM; koff [12]: 0.0256 s⁻¹; kon [12]: 252000 M⁻¹ s⁻¹
B3	31.3	0.011	350000	no binding (tested: 20 nM)	no binding (tested: 500 nM)	–	–	–	5.8	0.00369	637000	50.7	0.013	257000	56.2	0.0162	288000	–
B4	–	–	–	–	–	4.43	0.0105	2.38e+06	–	–	–	–	–	–	–	–	–	–
